Earlier results on one protein are cited in publication PMC6425487.

The target in the data set is Cterm (position 6, KEKGLF-----). Kind of data set: NMR. The following applies: 150 mM; free peptide in solution.

For orientation: pKa means the negative logarithm of the acid dissociation constant. On to KEKGLF, for which the pKa is on record as 3.2.
